Assay results: PMC5007448, “Molecular logic of the Zur-regulated zinc deprivation response in Bacillus subtilis”

B1: PznuA (dsDNA)
DNA 1: ATTTATTCTTGCAAAACGTAATGACTTCGGTTTATTATGATATAG
DNA 2: CTATATCATAATAAACCGAAGTCATTACGTTTTGCAAGAATAAAT
B2: PfolEB (dsDNA)
DNA 1: ACCGATCAAAATAAATAGTAATTATTACGATTTGTTAGTGAGAGG
DNA 2: CCTCTCACTAACAAATCGTAATAATTACTATTTATTTTGATCGGT
B3: PyciC (dsDNA)
DNA 1: ACCATACAATTTAAGTCGTAACAATTACGTTTTATGATAAATGGC
DNA 2: GCCATTTATCATAAAACGTAATTGTTACGACTTAAATTGTATGGT
B4: PrpsNB (dsDNA)
DNA 1: GAATGATACATTTTAAATCGTAACAATTTCGATTTAAAGGGAGGC
DNA 2: GCCTCCCTTTAAATCGAAATTGTTACGATTTAAAATGTATCATTC
B5: PrpmEB (dsDNA)
DNA 1: GTAAGGTTATAAAATAAAACGTAATTATTACGATTTATTGAAAGG
DNA 2: CCTTTCAATAAATCGTAATAATTACGTTTTATTTTATAACCTTAC
B6: PzinT (dsDNA)
DNA 1: ATGTATGTATAATAAATCGTAATGTTTTCGATTTAATAAAAAAGG
DNA 2: CCTTTTTTATTAAATCGAAAACATTACGATTTATTATACATACAT

Target: Zur WT (BsZur) (Bacillus subtilis, UniProt P54479 1-145)
Experiment: EMSA; 0.1 uM ZnSO4; 20 mM Tris-HCl pH 6.4, 50 mM KCl, 1 mM DTT, 0.1 mg/ml BSA, 5% glycerol, 0.1 ug poly(dI-dC) in 20 ul, 0.1 uM ZnSO4; room temperature 20 min; gel at 4 C in TA pH
Conditions: protein: recombinant; tags: none stated; chain copies: 2; label: 5'-32P; blunt

| Binder | Kd [nM] |
| --- | --- |
| B1 | 12.5 ± 4 |
| B2 | 21.9 ± 3.9 |
| B3 | 25.4 ± 1.1 |
| B4 | 14.3 ± 2.5 |
| B5 | 14.3 ± 2.6 |
| B6 | 15.6 ± 3.5 |

Target: Zur C84S (Bacillus subtilis, UniProt P54479 1-145, C84S)
Experiment: as above
Conditions: protein: recombinant; tags: none stated; chain copies: 2; label: 5'-32P; blunt

| Binder | Kd [nM] |
| --- | --- |
| B1 | 73 ± 2 |
| B2 | 28.6 ± 2.5 |
| B3 | 80.6 ± 3.2 |
| B4 | 16.5 ± 2.5 |
| B5 | 77.9 ± 4 |
| B6 | 75.5 ± 5.3 |

Target: Zur H124A (Bacillus subtilis, UniProt P54479 1-145, H124A)
Experiment: as above
Conditions: protein: recombinant; tags: none stated; chain copies: 2; label: 5'-32P; blunt

| Binder | Kd [nM] |
| --- | --- |
| B1 | 110 ± 3 |
| B2 | 100 ± 4 |
| B3 | 129 ± 3.8 |
| B4 | 99 ± 1.6 |
| B5 | 101 ± 2.3 |
| B6 | 96 ± 1.3 |
